The values that follow come from patent publication US20240018502A1.

This experiment has as its target plasma purified human complement protein C3 (human) (UniProt P01024). Briefly: cell-based or functional assay.

Chain of plasma purified human complement protein C3 (human) (P01024 23-667, chain 1 of 2): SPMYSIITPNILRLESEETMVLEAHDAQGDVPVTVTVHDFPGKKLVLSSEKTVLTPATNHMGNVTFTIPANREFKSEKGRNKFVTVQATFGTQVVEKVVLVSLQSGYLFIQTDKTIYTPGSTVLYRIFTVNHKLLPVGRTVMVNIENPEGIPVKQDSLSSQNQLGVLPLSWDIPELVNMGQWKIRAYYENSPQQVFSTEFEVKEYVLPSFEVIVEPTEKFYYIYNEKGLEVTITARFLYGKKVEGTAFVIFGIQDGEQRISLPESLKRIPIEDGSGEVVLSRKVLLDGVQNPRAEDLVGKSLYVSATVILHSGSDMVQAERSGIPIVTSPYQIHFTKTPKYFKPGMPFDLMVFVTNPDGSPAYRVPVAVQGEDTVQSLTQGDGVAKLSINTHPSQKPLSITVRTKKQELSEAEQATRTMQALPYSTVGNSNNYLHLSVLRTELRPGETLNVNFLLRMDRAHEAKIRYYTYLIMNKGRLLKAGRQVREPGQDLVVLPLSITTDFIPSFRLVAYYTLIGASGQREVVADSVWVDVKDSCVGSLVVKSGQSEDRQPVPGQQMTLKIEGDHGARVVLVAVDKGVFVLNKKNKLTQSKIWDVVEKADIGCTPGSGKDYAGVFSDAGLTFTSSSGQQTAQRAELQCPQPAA
Chain of plasma purified human complement protein C3 (human) (P01024 672-1663, chain 2 of 2): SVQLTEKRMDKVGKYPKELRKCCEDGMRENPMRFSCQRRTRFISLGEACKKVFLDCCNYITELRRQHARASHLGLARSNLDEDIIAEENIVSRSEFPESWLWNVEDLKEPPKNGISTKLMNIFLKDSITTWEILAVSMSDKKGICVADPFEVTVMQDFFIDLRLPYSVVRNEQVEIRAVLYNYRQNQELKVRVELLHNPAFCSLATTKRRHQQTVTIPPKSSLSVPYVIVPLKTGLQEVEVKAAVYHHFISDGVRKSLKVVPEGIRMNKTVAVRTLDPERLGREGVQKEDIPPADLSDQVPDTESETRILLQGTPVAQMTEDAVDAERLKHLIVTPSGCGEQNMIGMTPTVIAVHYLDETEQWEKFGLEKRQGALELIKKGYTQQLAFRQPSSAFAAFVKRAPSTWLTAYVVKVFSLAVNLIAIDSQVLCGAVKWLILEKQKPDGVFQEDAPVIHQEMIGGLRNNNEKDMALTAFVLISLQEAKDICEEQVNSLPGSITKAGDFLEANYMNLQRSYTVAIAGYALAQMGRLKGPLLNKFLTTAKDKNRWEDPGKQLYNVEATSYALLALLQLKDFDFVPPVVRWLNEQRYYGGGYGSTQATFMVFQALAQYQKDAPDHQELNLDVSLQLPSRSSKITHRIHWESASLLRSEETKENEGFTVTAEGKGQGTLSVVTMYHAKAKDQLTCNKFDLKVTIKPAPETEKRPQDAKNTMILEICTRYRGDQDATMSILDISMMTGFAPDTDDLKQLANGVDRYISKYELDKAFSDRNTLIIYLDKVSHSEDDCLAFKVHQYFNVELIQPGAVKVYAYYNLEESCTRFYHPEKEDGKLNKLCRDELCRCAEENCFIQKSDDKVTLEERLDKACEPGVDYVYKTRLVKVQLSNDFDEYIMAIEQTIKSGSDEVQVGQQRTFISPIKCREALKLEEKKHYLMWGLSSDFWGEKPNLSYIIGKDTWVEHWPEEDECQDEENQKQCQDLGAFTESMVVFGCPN

B1: MTSP-1 Q38E/H40R/I41H/F97D/F99L/C122S/Q192G (enzyme)
chain: VVGGTDADEGEWPWQVSLHALGEGRHCGASLISPNWLVSAAHCYIDDRGFRYSDPTQWTAFLGLHDQSQRSAPGVQERRLKRIISHPFFNDDTLDYDIALLELEKPAEYSSMVRPISLPDASHVFPAGKAIWVTGWGHTQYGGTGALILQKGEIRVINQTTCENLLPQQITPRMMCVGFLSGGVDSCGGDSGGPLSSVEADGRIFQAGVVSWGDGCAQRNKPGVYTRLPLFRDWIKENTGV
The molecule B1 came in with an EC50 of hC3 cleavage of 30.9 nM.

B2: MTSP-1 Q38G/H40R/I41H/D60bK/F97D/F99L/C122S/Q175L/Q192G (enzyme)
chain: VVGGTDADEGEWPWQVSLHALGGGRHCGASLISPNWLVSAAHCYIDKRGFRYSDPTQWTAFLGLHDQSQRSAPGVQERRLKRIISHPFFNDDTLDYDIALLELEKPAEYSSMVRPISLPDASHVFPAGKAIWVTGWGHTQYGGTGALILQKGEIRVINQTTCENLLPQLITPRMMCVGFLSGGVDSCGGDSGGPLSSVEADGRIFQAGVVSWGDGCAQRNKPGVYTRLPLFRDWIKENTGV
Molecule B2 yielded an EC50 of hC3 cleavage of 20.6 nM.

B3: MTSP-1 H40R/I41H/F97D/F99L/Q175R/Q192G/D217E/K224R (enzyme)
chain: VVGGTDADEGEWPWQVSLHALGQGRHCGASLISPNWLVSAAHCYIDDRGFRYSDPTQWTAFLGLHDQSQRSAPGVQERRLKRIISHPFFNDDTLDYDIALLELEKPAEYSSMVRPICLPDASHVFPAGKAIWVTGWGHTQYGGTGALILQKGEIRVINQTTCENLLPQRITPRMMCVGFLSGGVDSCGGDSGGPLSSVEADGRIFQAGVVSWGEGCAQRNRPGVYTRLPLFRDWIKENTGV
B3 yielded an EC50 of hC3 cleavage of 21.9 nM.

B4: MTSP-1 Q38E/H40R/I41H/D60bN/F60eT/F97D/F99L/C122S/Q175L/Q192G (enzyme)
chain: VVGGTDADEGEWPWQVSLHALGEGRHCGASLISPNWLVSAAHCYIDNRGTRYSDPTQWTAFLGLHDQSQRSAPGVQERRLKRIISHPFFNDDTLDYDIALLELEKPAEYSSMVRPISLPDASHVFPAGKAIWVTGWGHTQYGGTGALILQKGEIRVINQTTCENLLPQLITPRMMCVGFLSGGVDSCGGDSGGPLSSVEADGRIFQAGVVSWGDGCAQRNKPGVYTRLPLFRDWIKENTGV
B4: the EC50 of hC3 cleavage turned out to be 9.42 nM.

B5: MTSP-1 Q38G/H40R/I41H/D60bN/F97D/F99L/C122S/Q175L/Q192G (enzyme)
chain: VVGGTDADEGEWPWQVSLHALGGGRHCGASLISPNWLVSAAHCYIDNRGFRYSDPTQWTAFLGLHDQSQRSAPGVQERRLKRIISHPFFNDDTLDYDIALLELEKPAEYSSMVRPISLPDASHVFPAGKAIWVTGWGHTQYGGTGALILQKGEIRVINQTTCENLLPQLITPRMMCVGFLSGGVDSCGGDSGGPLSSVEADGRIFQAGVVSWGDGCAQRNKPGVYTRLPLFRDWIKENTGV
The molecule B5 came in with an EC50 of hC3 cleavage of 0.867 nM.

B6: MTSP-1 Q38E/H40R/I41H/D60bN/F97D/F99L/C122S/Q192G (enzyme)
chain: VVGGTDADEGEWPWQVSLHALGEGRHCGASLISPNWLVSAAHCYIDNRGFRYSDPTQWTAFLGLHDQSQRSAPGVQERRLKRIISHPFFNDDTLDYDIALLELEKPAEYSSMVRPISLPDASHVFPAGKAIWVTGWGHTQYGGTGALILQKGEIRVINQTTCENLLPQQITPRMMCVGFLSGGVDSCGGDSGGPLSSVEADGRIFQAGVVSWGDGCAQRNKPGVYTRLPLFRDWIKENTGV
For B6, the EC50 of hC3 cleavage worked out at 39.5 nM.

B7: MTSP-1 Q38E/H40R/I41H/D60bK/F97D/F99L/C122S/Q175L/Q192G (enzyme)
chain: VVGGTDADEGEWPWQVSLHALGEGRHCGASLISPNWLVSAAHCYIDKRGFRYSDPTQWTAFLGLHDQSQRSAPGVQERRLKRIISHPFFNDDTLDYDIALLELEKPAEYSSMVRPISLPDASHVFPAGKAIWVTGWGHTQYGGTGALILQKGEIRVINQTTCENLLPQLITPRMMCVGFLSGGVDSCGGDSGGPLSSVEADGRIFQAGVVSWGDGCAQRNKPGVYTRLPLFRDWIKENTGV
B7 showed an EC50 of hC3 cleavage of 15.3 nM.

B8: MTSP-1 Q38E/H40R/I41H/D60bE/F97D/F99L/C122S/Q192G (enzyme)
chain: VVGGTDADEGEWPWQVSLHALGEGRHCGASLISPNWLVSAAHCYIDERGFRYSDPTQWTAFLGLHDQSQRSAPGVQERRLKRIISHPFFNDDTLDYDIALLELEKPAEYSSMVRPISLPDASHVFPAGKAIWVTGWGHTQYGGTGALILQKGEIRVINQTTCENLLPQQITPRMMCVGFLSGGVDSCGGDSGGPLSSVEADGRIFQAGVVSWGDGCAQRNKPGVYTRLPLFRDWIKENTGV
On to B8, for which the EC50 of hC3 cleavage amounted to 28.1 nM.

B9: MTSP-1 Q38H/I41S/D60bA/F60eV/Y60gF/F97T/ins97aE/T98G/F99L/C122S/Q175L/Q192T (enzyme)
chain: VVGGTDADEGEWPWQVSLHALGHGHSCGASLISPNWLVSAAHCYIDARGVRFSDPTQWTAFLGLHDQSQRSAPGVQERRLKRIISHPFFNDTEGLDYDIALLELEKPAEYSSMVRPISLPDASHVFPAGKAIWVTGWGHTQYGGTGALILQKGEIRVINQTTCENLLPQLITPRMMCVGFLSGGVDSCTGDSGGPLSSVEADGRIFQAGVVSWGDGCAQRNKPGVYTRLPLFRDWIKENTGV
Molecule B9 showed an EC50 of hC3 cleavage of 7.46 nM.

B10: MTSP-1 F97D/ins97aV/T98P/F99L/C122S/G151N/Q192G (enzyme)
chain: VVGGTDADEGEWPWQVSLHALGQGHICGASLISPNWLVSAAHCYIDDRGFRYSDPTQWTAFLGLHDQSQRSAPGVQERRLKRIISHPFFNDDVPLDYDIALLELEKPAEYSSMVRPISLPDASHVFPAGKAIWVTGWGHTQYGGTNALILQKGEIRVINQTTCENLLPQQITPRMMCVGFLSGGVDSCGGDSGGPLSSVEADGRIFQAGVVSWGDGCAQRNKPGVYTRLPLFRDWIKENTGV
Turning to B10, the EC50 of hC3 cleavage is 87 nM.

B11: MTSP-1 I41D/ins97aE/F97T/T98G/F99L/C122S/Q175L/Q192E (enzyme)
chain: VVGGTDADEGEWPWQVSLHALGQGHDCGASLISPNWLVSAAHCYIDDRGFRYSDPTQWTAFLGLHDQSQRSAPGVQERRLKRIISHPFFNDTEGLDYDIALLELEKPAEYSSMVRPISLPDASHVFPAGKAIWVTGWGHTQYGGTGALILQKGEIRVINQTTCENLLPQLITPRMMCVGFLSGGVDSCEGDSGGPLSSVEADGRIFQAGVVSWGDGCAQRNKPGVYTRLPLFRDWIKENTGV
Take B11: the EC50 of hC3 cleavage was found to be 157 nM.

B12: MTSP-1 I41D/ins97aE/F97T/T98G/F99L/C122S/G151N/Q175L/Q192E (enzyme)
chain: VVGGTDADEGEWPWQVSLHALGQGHDCGASLISPNWLVSAAHCYIDDRGFRYSDPTQWTAFLGLHDQSQRSAPGVQERRLKRIISHPFFNDTEGLDYDIALLELEKPAEYSSMVRPISLPDASHVFPAGKAIWVTGWGHTQYGGTNALILQKGEIRVINQTTCENLLPQLITPRMMCVGFLSGGVDSCEGDSGGPLSSVEADGRIFQAGVVSWGDGCAQRNKPGVYTRLPLFRDWIKENTGV
For the molecule B12, the EC50 of hC3 cleavage is 148 nM.

B13: MTSP-1 H40R/I41H/F97D/ins97aV/T98P/F99L/C122S/Q175R/Q192G/D217E/K224R (enzyme)
chain: VVGGTDADEGEWPWQVSLHALGQGRHCGASLISPNWLVSAAHCYIDDRGFRYSDPTQWTAFLGLHDQSQRSAPGVQERRLKRIISHPFFNDDVPLDYDIALLELEKPAEYSSMVRPISLPDASHVFPAGKAIWVTGWGHTQYGGTGALILQKGEIRVINQTTCENLLPQRITPRMMCVGFLSGGVDSCGGDSGGPLSSVEADGRIFQAGVVSWGEGCAQRNRPGVYTRLPLFRDWIKENTGV
For the molecule B13, the EC50 of hC3 cleavage worked out at 65.8 nM.

B14: MTSP-1 Q38E/I41S/D60bH/F60eI/F97T/ins97aE/T98G/F99L/C122S/Q175L/Q192V (enzyme)
chain: VVGGTDADEGEWPWQVSLHALGEGHSCGASLISPNWLVSAAHCYIDHRGIRYSDPTQWTAFLGLHDQSQRSAPGVQERRLKRIISHPFFNDTEGLDYDIALLELEKPAEYSSMVRPISLPDASHVFPAGKAIWVTGWGHTQYGGTGALILQKGEIRVINQTTCENLLPQLITPRMMCVGFLSGGVDSCVGDSGGPLSSVEADGRIFQAGVVSWGDGCAQRNKPGVYTRLPLFRDWIKENTGV
For the molecule B14, the EC50 of hC3 cleavage came out at 10.4 nM.

B15: MTSP-1 ins97aV/F97D/T98P/F99L/C122S/Q175L/Q192E (enzyme)
chain: VVGGTDADEGEWPWQVSLHALGQGHICGASLISPNWLVSAAHCYIDDRGFRYSDPTQWTAFLGLHDQSQRSAPGVQERRLKRIISHPFFNDDVPLDYDIALLELEKPAEYSSMVRPISLPDASHVFPAGKAIWVTGWGHTQYGGTGALILQKGEIRVINQTTCENLLPQLITPRMMCVGFLSGGVDSCEGDSGGPLSSVEADGRIFQAGVVSWGDGCAQRNKPGVYTRLPLFRDWIKENTGV
In the case of B15, the EC50 of hC3 cleavage is 158 nM.

B16: MTSP-1 I41R/ins97aV/F97D/T98P/F99L/C122S/G151N/Q192G (enzyme)
chain: VVGGTDADEGEWPWQVSLHALGQGHRCGASLISPNWLVSAAHCYIDDRGFRYSDPTQWTAFLGLHDQSQRSAPGVQERRLKRIISHPFFNDDVPLDYDIALLELEKPAEYSSMVRPISLPDASHVFPAGKAIWVTGWGHTQYGGTNALILQKGEIRVINQTTCENLLPQQITPRMMCVGFLSGGVDSCGGDSGGPLSSVEADGRIFQAGVVSWGDGCAQRNKPGVYTRLPLFRDWIKENTGV
Turning to B16, the EC50 of hC3 cleavage turned out to be 232 nM.

B17: MTSP-1 I41D/ins97aE/F97T/T98G/F99L/C122S/G151N/Q175L/Q192E/Q209L (enzyme)
chain: VVGGTDADEGEWPWQVSLHALGQGHDCGASLISPNWLVSAAHCYIDDRGFRYSDPTQWTAFLGLHDQSQRSAPGVQERRLKRIISHPFFNDTEGLDYDIALLELEKPAEYSSMVRPISLPDASHVFPAGKAIWVTGWGHTQYGGTNALILQKGEIRVINQTTCENLLPQLITPRMMCVGFLSGGVDSCEGDSGGPLSSVEADGRIFLAGVVSWGDGCAQRNKPGVYTRLPLFRDWIKENTGV
B17 came in with an EC50 of hC3 cleavage of 103 nM.

B18: MTSP-1 I41R/ins97aV/F97D/T98P/F99L/C122S/G151N/Q175L/Q192E (enzyme)
chain: VVGGTDADEGEWPWQVSLHALGQGHRCGASLISPNWLVSAAHCYIDDRGFRYSDPTQWTAFLGLHDQSQRSAPGVQERRLKRIISHPFFNDDVPLDYDIALLELEKPAEYSSMVRPISLPDASHVFPAGKAIWVTGWGHTQYGGTNALILQKGEIRVINQTTCENLLPQLITPRMMCVGFLSGGVDSCEGDSGGPLSSVEADGRIFQAGVVSWGDGCAQRNKPGVYTRLPLFRDWIKENTGV
Take B18: the EC50 of hC3 cleavage worked out at 187 nM.

B19: MTSP-1 Q38R/I41S/D60bH/F60eV/F97T/ins97aE/T98G/F99L/C122S/Q175L/Q192E (enzyme)
chain: VVGGTDADEGEWPWQVSLHALGRGHSCGASLISPNWLVSAAHCYIDHRGVRYSDPTQWTAFLGLHDQSQRSAPGVQERRLKRIISHPFFNDTEGLDYDIALLELEKPAEYSSMVRPISLPDASHVFPAGKAIWVTGWGHTQYGGTGALILQKGEIRVINQTTCENLLPQLITPRMMCVGFLSGGVDSCEGDSGGPLSSVEADGRIFQAGVVSWGDGCAQRNKPGVYTRLPLFRDWIKENTGV
Consider B19, for which the EC50 of hC3 cleavage stood at 35.2 nM.

B20: MTSP-1 Q38R/I41S/D60bH/F60eV/ins97aE/F97T/T98G/F99L/C122S/G151N/Q175L/Q192E (enzyme)
chain: VVGGTDADEGEWPWQVSLHALGRGHSCGASLISPNWLVSAAHCYIDHRGVRYSDPTQWTAFLGLHDQSQRSAPGVQERRLKRIISHPFFNDTEGLDYDIALLELEKPAEYSSMVRPISLPDASHVFPAGKAIWVTGWGHTQYGGTNALILQKGEIRVINQTTCENLLPQLITPRMMCVGFLSGGVDSCEGDSGGPLSSVEADGRIFQAGVVSWGDGCAQRNKPGVYTRLPLFRDWIKENTGV
In turn, B20 showed an EC50 of hC3 cleavage of 22.5 nM.
